Here are results for one substance from publication PMC10515849.

For this assay, the target named is long form of human LepR (LepRb), full length, on HEK293T cells (human) (UniProt P48357). Description: flow cytometry on cells.
Sequence of UniProt P48357 (P48357 22-1165): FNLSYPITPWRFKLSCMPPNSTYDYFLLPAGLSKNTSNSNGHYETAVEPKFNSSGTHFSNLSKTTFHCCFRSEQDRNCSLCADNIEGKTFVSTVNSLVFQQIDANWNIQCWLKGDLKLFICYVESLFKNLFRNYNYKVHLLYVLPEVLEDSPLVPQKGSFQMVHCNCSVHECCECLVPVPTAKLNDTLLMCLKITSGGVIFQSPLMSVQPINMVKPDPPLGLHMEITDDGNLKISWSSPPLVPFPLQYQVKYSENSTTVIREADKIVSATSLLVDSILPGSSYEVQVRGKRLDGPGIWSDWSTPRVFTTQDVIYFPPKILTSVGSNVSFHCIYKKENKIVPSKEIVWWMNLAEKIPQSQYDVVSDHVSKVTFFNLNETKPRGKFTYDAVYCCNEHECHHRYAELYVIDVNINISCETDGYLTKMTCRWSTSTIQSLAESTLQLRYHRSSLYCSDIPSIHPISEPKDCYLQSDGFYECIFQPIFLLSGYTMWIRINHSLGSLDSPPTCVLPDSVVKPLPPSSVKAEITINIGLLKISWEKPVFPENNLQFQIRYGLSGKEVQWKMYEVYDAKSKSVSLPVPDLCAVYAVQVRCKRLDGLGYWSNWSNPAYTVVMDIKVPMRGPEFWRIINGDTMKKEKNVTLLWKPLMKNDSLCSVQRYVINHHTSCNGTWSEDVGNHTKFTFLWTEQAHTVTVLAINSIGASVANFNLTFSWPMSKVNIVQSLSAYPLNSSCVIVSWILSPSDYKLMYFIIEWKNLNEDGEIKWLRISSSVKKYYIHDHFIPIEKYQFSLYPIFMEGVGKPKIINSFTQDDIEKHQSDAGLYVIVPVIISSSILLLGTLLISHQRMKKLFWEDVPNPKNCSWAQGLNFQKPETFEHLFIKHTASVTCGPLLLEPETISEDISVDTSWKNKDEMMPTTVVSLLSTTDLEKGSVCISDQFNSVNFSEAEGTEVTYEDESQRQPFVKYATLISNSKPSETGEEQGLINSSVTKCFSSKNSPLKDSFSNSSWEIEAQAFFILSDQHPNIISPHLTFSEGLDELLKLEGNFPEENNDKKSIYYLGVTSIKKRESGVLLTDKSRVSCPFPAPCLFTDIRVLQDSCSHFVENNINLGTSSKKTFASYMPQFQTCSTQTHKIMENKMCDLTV

For orientation: Kd means the free concentration of one partner at which half of the binding sites on the other are occupied at equilibrium, for simple one-to-one binding. High values mean a looser complex, low ones a tighter complex. For the substance FITC-labeled rASRA (natural protein), the Kd came to 2.2 nM.
